This is an account of results in PMC12561426, “Dissecting the Interplay Between NRF2 and BACH1 at CsMBEs”.

Data set [1] concerns the target BACH1DBD (UniProt O14867 511-627). Briefly: EMSA; apparent; homodimer concentration; 150 mM NaCl, 50 mM HEPES pH 7.9, 10% glycerol, 1 mM TCEP, 1 mM DTT, 2 mM MgCl2; 3 nM DNA; TEV and 3C 50 ug/mL each, 4 h 25 °C; competition then O/N 4 °C; gels 4 °C in 1X TBE. The note with it: protein: recombinant; tags: C-terminal 3C-6xHis; chain copies: 2; label: 5' fluorescein on forward strand; blunt. For orientation: A gel shift assay detects complexes by their altered migration in electrophoresis.

The target in data set [2] is T1, NRF2DBD (UniProt Q16236 451-567).
T1 sequence: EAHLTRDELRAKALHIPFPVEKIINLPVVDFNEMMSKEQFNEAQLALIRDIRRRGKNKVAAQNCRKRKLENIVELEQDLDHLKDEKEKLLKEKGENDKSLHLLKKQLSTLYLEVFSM
The data set is described as follows: EMSA; apparent; homodimer; 150 mM NaCl, 50 mM HEPES pH 7.9, 10% glycerol, 1 mM TCEP, 1 mM DTT, 2 mM MgCl2; 3 nM DNA; TEV and 3C 50 ug/mL each, 4 h 25 °C; competition then O/N 4 °C; gels 4 °C in 1X TBE. The conditions noted are these: protein: recombinant; tags: C-terminal 3C-6xHis; chain copies: 2; label: 5' fluorescein on forward strand; blunt.

Data set [3] deals with sMafGDBD (UniProt O15525 1-162). The data set is described as above. The note with it: protein: recombinant; tags: N-terminal 6xHis-TEV; chain copies: 2; label: 5' fluorescein on forward strand; blunt.

Chain of BACH1DBD (O14867 511-627): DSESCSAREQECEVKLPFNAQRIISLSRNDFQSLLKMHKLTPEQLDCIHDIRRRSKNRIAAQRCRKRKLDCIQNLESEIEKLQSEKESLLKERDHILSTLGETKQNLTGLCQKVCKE

B1: HMOX1 CsMBE 30-mer (dsDNA)
DNA 1: CTCGGGACCGTGACTCAGCAGGAAAAACAC
DNA 2: GTGTTTTTCCTGCTGAGTCACGGTCCCGAG
Regarding B1, the values for the Kd in data set [1], in data set [2] and in data set [3] were roughly 802 nM, roughly 590 nM and roughly 203 nM, respectively.
